“Also recorded” adds a separate entry of the source.
Experiments:
Format in all cases: cell-based, human
Flp-In T-REx-293 cells = experiment: Tetracycline-inducible P-Tet TL reporter HDR and mutEJ assay with or without doxycycline
Description: To ask if active transcription was required for the transcribed strand bias in HDR at nicks, derivatives of the TLTP and TLNT reporters were created in which a tetracycline-inducible (P-Tet) was substituted for the constitutive SFFV promoter upstream of GFP. TheseP-Tet TLTP and P-Tet TLNT reporters were stably integrated at the unique FRT site in Flp-In™ T-REx™-293 cells. Cells were cultured with (ON) or without (OFF) 1 μg/ml doxycycline, transfected with an I-AniI expression construct and the pCS14GFP plasmid dsDNA donor, and after 8-9 days of culture, doxycycline was added to the OFF cells to permit detection of HDR (GFP+) and mutEJ (mCherry+) events that had occurred in the absence of transcription. Active transcription increased the frequency of HDR at a transcribed-strand nick 2.5-fold, but reduced the frequency of HDR at a non-transcribed strand nick 4-fold (FIG. 9C). These opposing effects together accounted for the 8-fold greater frequency of HDR at a transcribed strand nick in a transcribed gene (FIG. 9B). […] Without wishing to be bound by theory, the transcription-associated strand bias of HDR at nicks may reflect unwinding ahead of the transcription apparatus that exposes the recombinogenic 3′ end of a transcribed strand nick that stimulates HDR, while occlusion of the 3′ end and exposure of the less recombinogenic 5′ end of a non-transcribed strand nick may hinder HDR (FIG. 9D). Similarly, the 2-fold reduction in mutEJ observed at DSBs, but not at nicks (FIG. 17B), may be caused by occlusion of the DSB by factors associated with the transcription apparatus.
(§1) Cell culture and transfection. […]
Flow cytometry. Cells were fixed in 2% formaldehyde and analyzed on an LSR II™ flow cytometer (Becton Dickinson, Franklin Lakes, N.J.). […]

293T-TL7TP cells = experiment: Traffic Light (TL) reporter HDR (GFP+) flow assay, I-AniI nickase or cleavase, 293T-TL7TP clonal line; conditions: I-AniI nick, 99 nt ssDNA donors
Text: Damage to the transcribed DNA strand is preferentially detected and repaired in transcription-coupled nucleotide excision repair^7, and transcribedstrand nicks can arrest transcriptional elongation in human cell extracts^8. […] Chromosomal repair targets were derived from the TL reporter^9. TLTP and […] reporters carry an I-AniI site oriented for nicking the transcribed or non-transcribed strand, respectively (FIGS. 1A and 5A-5E). HDR that replaces the I-AniI site and nonsense codons yields GFP+ cells (FIGS. 1B and 5A-5E). […] GFP+ cells among I-AniI-expressing (BFP+) cells were quantified 3 days later.
(§2) Flow cytometry data were analyzed using FlowJo™ (Tree Star, Ashland, Oreg.) flow cytometry analysis software and frequencies were transferred to Microsoft Excel™ in which statistical significance was determined by two-tailed t-test. In all experiments I-AniI was co-expressed with mTagBFP (BFP) and GFP+ and mCherry+ frequencies among BFP+ cells are shown.
Damage to the transcribed strand is preferentially detected and repaired in transcription-coupled nucleotide excision repair (16), and transcribed strand nicks can arrest transcriptional elongation in human cell extracts (17). […]

[1] = tested on: 293T-TLTP and 293T-TLNT cell populations; experiment: TL reporter HDR (GFP+) assay in 293T-TLTP and 293T-TLNT cell populations, I-AniI; conditions: I-AniI nickase
Text: Populations of 293T cells bearing either the TLTP or TLNT reporter at heterogeneous integration sites were transiently transfected with a construct co-expressing I-AniI and the blue fluorescent protein mTagBFP (BFP), and with the dsDNA plasmid donor pCS14GFP. This donor is homologous with the TLTP and TLNT reporters over a region extending 2.47 kb upstream and 0.56 kb downstream of the I-AniI site (FIG. 15A-15C). GFP+ cells among I-AniI-expressing (BFP+) cells were quantified at 3 days post-transfection. […] Nicks initiated HDR with nearly 8-fold greater frequency in the TLTP than in the TLNT population.
To learn what determines ssDNA donor strand bias, HDR by ssDNA donors complementary to the intact (cI) or nicked (cN) strand at transcribed and non-transcribed strand nicks in the TLTP and TLNT populations was compared. The TLTP and TLNT populations carry reporters delivered by lentiviruses and integrated at heterogeneous chromosomal positions, to minimize possible effects of replication direction on this assay.
To determine whether there is a predominant directionality to unwinding or resection, a comparison was made of HDR at nicks by ssDNA donors identical in length (75 nt) and centered on the nick or extending either 3′ or 5′ of the nick. […]

HT1080-TL4TP clonal line = experiment: TL reporter HDR (GFP+) flow assay, I-AniI nickase or cleavase, HT1080-TL4TP clonal line; conditions: I-AniI nick, ssDNA donors
Description: as §2
ssDNA molecules can serve as donors for HDR at DSBs (22-24). It was asked if they can also serve as donors for HDR at nicks using 99 nt ssDNA oligonucleotides in which a central 17 nt heterologous region corrects the mutations in the defective target gene (FIG. 10A). […] No donor strand bias was evident at DSBs.
Flow cytometry, HDR and mutEJ frequencies. Cells were processed for flow cytometry as described previously (13). In experiments with I-AniI, which was co-expressed with mTagBFP (BFP), data are presented as GFP+ and mCherry+ frequencies among BFP+ cells, except in cases where flow was carried out more than 8 days post-transfection, by which time the BFP signal was largely extinguished.
as §1
(§3) Flow cytometry. Cells were fixed in 2% formaldehyde and analyzed on an LSR II™ flow cytometer (Becton Dickinson, Franklin Lakes, N.J.). […] GFP, mCherry, and mTagBFP fluorescence were detected with 488 nm, 561 nm 406 nm and 641 nm lasers, respectively. […]

293T-TL7TP line = experiment: TL reporter mutagenic end joining (mCherry+) flow assay, I-AniI, 293T-TL7TP line; conditions: mCherry+ cells, nicks or DSBs
Text: Damage associated with gene targeting must be minimized for these applications. While the sequence-specificity of I-AniI limits its application to genome engineering, it is useful as a model in this context, as it cuts DNA to generate 5′-phosphate and 3′-hydroxyl ends like the FokI cleavage domain^13 of zinc finger or TALE nucleases suited for genome engineering applications. The TL reporter was used to quantify mutagenic end joining (EJ) accompanied by +2 frameshift that allows the mCherry gene to be translated (FIG. 1B). In the 293T-TL7TP line, the frequency of nick-initiated mutagenic EJ was nearly two orders of magnitude lower than that of DSB-initiated mutagenic EJ, regardless of donor (FIG. 3E). RAD51K133R expression increased the frequency of mutagenic EJ, but the frequency of nick-initiated mutagenic EJ remained lower than that of DSB-initiated mutagenic EJ (FIG. 3E). […]
Flow cytometry data were analyzed using FlowJo™ (Tree Star, Ashland, Oreg.) flow cytometry analysis software and frequencies were transferred to Microsoft Excel™ in which statistical significance was determined by two-tailed t-test. […]
as §3

[2] = ON vs OFF, 1 μg/ml doxycycline, pCS14GFP dsDNA donor

Molecule	reduction in mutEJ at DSBs (Flp-In T-REx-293 cells; ON vs OFF doxycycline, FIG. 17B, not at nicks) [fold]	increase of the frequency of HDR at a transcribed-strand nick (Flp-In T-REx-293 cells; [2]) [fold]	reduction of the frequency of HDR at a non-transcribed strand nick (Flp-In T-REx-293 cells; [2]) [fold]	frequency of HDR at nicks by ssDNA donor (293T-TL7TP cells)	effect on HDR at nicks in the transcribed or non-transcribed strand [1]	frequency of HDR at nicks by ssDNA donor (HT1080-TL4TP clonal line)	frequency of mutagenic EJ (293T-TL7TP line)
C[C@H]1c2cccc(O)c2C(=O)C2=C(O)[C@]3(O)C(=O)C(C(N)=O)=C(O)[C@@H](N(C)C)[C@@H]3[C@@H](O)[C@@H]21 [doxycycline]	2	2.5	4	–	–	–	–
RAD51K133R: dominant negative RAD51 mutant which does not hydrolyze ATP, transiently expressed from pCMV-RAD51K133R-T2A-IFP-1.4 (protein, UniProt Q06609 2-339, looked up, variant K133R, T2A-IFP1.4 coexpression) DNA repair protein RAD51 …: AMQMQLEANADTSVEEESFGPQPISRLEQCGINANDVKKLEEAGFHTVEAVAYAPKKELINIKGISEAKADKILAEAAKLVPMGFTTATEFHQRRSEIIQITTGSKELDKLLQGGIETGSITEMFGEFRTGRTQICHTLAVTCQLPIDRGGGEGKAMYIDTEGTFRPERLLAVAERYGLSGSDVLDNVAYARAFNTDHQTQLLYQASAMMVESRYALLIVDSATALYRTDYSGRGELSARQMHLARFLRMLLRLADEFGVAVVITNQVVAQVDGAAMFAADPKKPIGGNIIAHASTTRLYLRKGRGETRICKIYDSPCLPEAEAMFAINADGVGDAKD	–	–	–	stimulating	Stimulation was evident; also recorded: comparable effects	stimulating	increased

Source: patent US20160040155A1, “ACTIVATING AN ALTERNATIVE PATHWAY FOR HOMOLOGY-DIRECTED REPAIR TO STIMULATE TARGETED GENE CORRECTION AND GENOME ENGINEERING” (UNIVERSITY OF WASHINGTON THROUGH ITS CENTER FOR …, priority 2013, published 2016)
